Where no end group is shown, it is not given here.

One assay deals with T1, desmoglein 3 (human, UniProt P32926 50-615, limits assumed).
T1 construct: Antigen on commercial ELISA plates; also called Dsg3; Dsg 3
T1 sequence (looked up): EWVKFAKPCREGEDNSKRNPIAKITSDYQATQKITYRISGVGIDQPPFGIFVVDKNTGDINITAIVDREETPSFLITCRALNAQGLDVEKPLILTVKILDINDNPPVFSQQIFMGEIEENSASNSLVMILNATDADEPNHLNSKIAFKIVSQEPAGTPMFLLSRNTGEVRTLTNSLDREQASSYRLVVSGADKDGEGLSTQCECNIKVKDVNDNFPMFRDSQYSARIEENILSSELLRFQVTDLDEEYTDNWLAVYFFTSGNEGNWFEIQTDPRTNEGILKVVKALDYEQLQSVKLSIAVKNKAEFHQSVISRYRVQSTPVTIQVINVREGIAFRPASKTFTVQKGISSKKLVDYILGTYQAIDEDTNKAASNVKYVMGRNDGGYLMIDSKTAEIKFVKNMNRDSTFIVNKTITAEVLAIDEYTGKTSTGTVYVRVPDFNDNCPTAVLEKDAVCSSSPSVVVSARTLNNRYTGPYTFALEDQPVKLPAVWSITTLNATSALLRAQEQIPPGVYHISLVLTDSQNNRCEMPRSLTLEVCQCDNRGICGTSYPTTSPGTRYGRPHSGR
Briefly: ELISA. A general note: An ELISA detects its analyte on a solid surface through an enzyme-linked reagent.

The target in a further assay is T2, (D31)2/28 scFv.
T2 construct: Human anti-Dsg3/Dsg1 scFv from the PV(1) phage library (pComb3X, nickel-purified, HA-detected); also called pathogenic PV mAb
Kind of assay: ELISA inhibition, monoclonal peptide phage preincubated with PV scFv, Dsg plate (Dsg3 by paragraph 281). As to the method:
(§1) For ELISA inhibition assays, anti-idiotypic reagents were pre-incubated with PV mAbs for one hour at 37° C. prior to incubation on Dsg3 or Dsg1 ELISA plates (Rhigene/MBL), which were otherwise processed according to manufacturer's instructions. Anti-idiotypic antisera were effective and dose responsive at dilutions ranging from 1:3 to 1:6400, while peptide phage were used in inhibition assays from 10⁸ to 10¹⁰ pfu/well. PV scFv binding, detected with HRP-conjugated anti-HA secondary antibody (Roche), was titrated to a final OD450 reading of 0.4-1.0, which was within the linear range of detection.
(§2) Select peptide phage were tested for their ability to inhibit binding of PV mAbs to Dsg substrates by ELISA (Table 4).

The next assay has as its target T3, (D31)2/29 scFv.
T3 construct: also called pathogenic PV mAb
Described as above. As to the method: as §1, §2

The target of the next assay is T4, (D31)12b/6 scFv.
T4 construct: also called nonpathogenic PV mAb
The assay is described as above. As to the method: as §1, §2

The next assay has as its target T5, (D3)3c/9 scFv.
T5 construct: also called pathogenic PV mAb
The description is as above. As to the method:
as §1, §2

The target of another assay is T6, (D3)1d/2c scFv.
T6 construct: also called nonpathogenic PV mAb
The description is as above. As to the method:
as §1, §2

B1: P8 peptide phage (peptide, not shown: large carriers)
peptide: TDKTPFLLWRVH
modifications: also: displayed on phage, fused to pIII coat protein, linker not given here
notes: Monoclonal phage clone; tested as phage particle
On to B1, for which the binding result in the assay with desmoglein 3 is listed as “no binding”.

B2: P7 peptide phage (peptide, not shown: large carriers)
peptide: YSNKTPHLQWRL
modifications: also: displayed on phage, fused to pIII coat protein, linker not given here
notes: as for B1
Take B2: the binding result with desmoglein 3 is on record as “no binding”. Besides, the percent inhibition was 12% with (D31)2/28 scFv; 83% with (D31)2/29 scFv; 8% with (D31)12b/6 scFv; 6% with (D3)3c/9 scFv; 9% with (D3)1d/2c scFv.

B3: P4 peptide phage (peptide, not shown: large carriers)
peptide: ANKTSPFLMWRL
modifications: also: displayed on phage, fused to pIII
notes: Monoclonal phage clone from round 3 of screening with (D31)2/29 IgG; tested as phage particle
Regarding B3, the binding result with desmoglein 3 is listed as “no binding”. For the same molecule, the percent inhibition came out at 9% in the assay with (D31)2/28 scFv; 78% with (D31)2/29 scFv; 10% in the assay with (D31)12b/6 scFv; 7% with (D3)3c/9 scFv; 14% in the assay with (D3)1d/2c scFv.

B4: control peptide phage displaying a non-consensus sequence (peptide, not shown: large carriers)
peptide: DLNYFTLSSKRE
modifications: also: displayed on phage, fused to pIII coat protein, linker not given here
notes: Control phage clone; tested as phage particle; also called control phage
As for B4, the percent inhibition with (D31)2/28 scFv turned out to be 2%; with (D31)2/29 scFv it was 15%; with (D31)12b/6 scFv, 11%; with (D3)3c/9 scFv, 8%; in the assay with (D3)1d/2c scFv, 8%.

B5: P9 peptide phage (peptide, not shown: large carriers)
peptide: AKNPPTLIWKHT
modifications: also: displayed on phage, fused to pIII coat protein, linker not given here
notes: as for B1
Take B5: the binding result in the assay with desmoglein 3 is on record as “no binding”.

B6: P5 peptide phage (peptide, not shown: large carriers)
peptide: WANKQPTIIWRS
modifications: also: displayed on phage, fused to pIII coat protein, linker not given here
notes: as for B1
B6: the binding result in the assay with desmoglein 3 is listed as “no binding”.

B7: P14 peptide phage (peptide, not shown: large carriers)
peptide: TTLTLRH
modifications: also: displayed on phage, fused to pIII
notes: as for B1
Turning to B7, in the assay with desmoglein 3, the binding result was “no binding”. Also, the percent inhibition with (D31)2/28 scFv turned out to be 15%; in the assay with (D31)2/29 scFv, 16%; with (D31)12b/6 scFv, 13%; in the assay with (D3)3c/9 scFv, 5%; with (D3)1d/2c scFv it was 8%.

B8: P10 peptide phage (peptide, not shown: large carriers)
peptide: QHNKSPNLYWRS
modifications: also: displayed on phage, fused to pIII
notes: as for B1
Turning to B8, the binding result with desmoglein 3 was “no binding”.

These data come from US20100135948A1 (University of Pennsylvania, published 2010).
